Data as given in article PMC4183468.

Biological target: VE-cadherin (Human CD-144, cadherin-5) (human) (UniProt P33151)
Assay: ELISA; 0.01 µM VE-cadherin or control BSA coated on Linbro plate wells in HBSC overnight at 4°C, blocked with 1% BSA in DMEM; MBP fusions added for 1 hr; detected with anti-MBP antibody, OD655; VE-cadherin signal minus BSA and plastic binding

UniProt P33151, sequence (P33151 48-599): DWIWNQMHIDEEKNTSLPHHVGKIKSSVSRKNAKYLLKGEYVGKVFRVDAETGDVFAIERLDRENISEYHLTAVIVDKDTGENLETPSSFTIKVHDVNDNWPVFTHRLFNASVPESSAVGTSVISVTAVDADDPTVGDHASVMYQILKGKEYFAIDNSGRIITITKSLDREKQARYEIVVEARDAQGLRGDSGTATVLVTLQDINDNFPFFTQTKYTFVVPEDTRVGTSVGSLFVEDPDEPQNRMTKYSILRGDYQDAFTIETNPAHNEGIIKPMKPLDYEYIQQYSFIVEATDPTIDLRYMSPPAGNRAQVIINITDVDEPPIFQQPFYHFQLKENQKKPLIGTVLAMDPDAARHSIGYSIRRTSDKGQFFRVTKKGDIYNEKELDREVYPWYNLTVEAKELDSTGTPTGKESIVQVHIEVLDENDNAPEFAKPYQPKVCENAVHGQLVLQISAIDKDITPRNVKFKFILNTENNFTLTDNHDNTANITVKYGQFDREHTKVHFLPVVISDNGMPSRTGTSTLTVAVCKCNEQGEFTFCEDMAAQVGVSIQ

Row | Substance | Kd [nM]
1 | MBP fusion of L. interrogans candidate adhesin LIC13411 (natural protein) | 0.4
2 | MBP fusion of L. interrogans candidate adhesin LIC11574 (natural protein) | 7.6
